For test [1], the target named is HLA-E on cells that do not present the HLA-G signal peptide (unpulsed K562.E cells; HLA-E positive, HLA-G negative cells; Tap-1 knock-out cells) (human) (UniProt P13747). As to the kind of experiment: flow cytometry, K562.E, column 0 µg/mL +mIgG1. For orientation: Flow cytometry measures light scatter and fluorescence of single cells or particles in a stream.
Test [2] addresses HLA-E/… (V-0025, HLA-G signal peptide) complex on cells (human) (UniProt P13747). As to the kind of experiment: flow cytometry, K562.E +V-0025, column 0 µg/mL +mIgG1.
Test [3] addresses V-0025 (…, HLA-G signal peptide)/HLA-E*0103 monomer complex (human). In words: ELISA, V-0025 at 0.25 µg/mL, antibody titrated from 2 µg/mL to 3.8 pg/mL. A general note: An ELISA detects its analyte on a solid surface through an enzyme-linked reagent.
Test [4] deals with T1, HLA-G on cell lines that express HLA-G but not HLA-E (human, UniProt P17693 25-338).
T1 construct: whole, on cells
As to the kind of experiment: flow cytometry, IFNγ-stimulated JEG3 HLA-E knock-out.

In test [5] the target is peptide-empty HLA-E (human). In words: ELISA, ABX0011 in mouse serum, HLA-E 01:03 monomers.
Test [6] deals with T2, V-0025 (…, HLA-G signal peptide)/HLA-E*0103 monomer complex (human).
T2 construct: also called ABI-V-0025; 0025-E 01:03 monomer complex
As to the kind of experiment: ELISA, V-0025 at 0.25 µg/mL, antibody titrated from 2 µg/mL to 3.8 pg/mL.

Test [7] deals with V-0043 (…)/HLA-E 01:03 monomer complex (human). As to the kind of experiment: ELISA, monomers on a neutravidin plate.
Test [8] deals with V-0037 (…)/HLA-E 01:03 monomer complex (human). As to the kind of experiment: ELISA, monomers on a neutravidin plate.
The target in test [9] is V-0034 (…)/HLA-E 01:03 monomer complex (human). In words: ELISA, monomers on a neutravidin plate.
Test [10] has as its target V-0035 (…)/HLA-E 01:03 monomer complex (human). As to the kind of experiment: ELISA, monomer at 0.25 ug/ml on neutravidin plate (FIG. 9B).
For test [11], the target named is P-0550 (…, PODXL2)/HLA-E 01:03 monomer complex (human). The test is described as above.
In test [12] the target is V-0045 (…)/HLA-E 01:03 monomer complex (human). The test is described as above.
Test [13] has as its target V-0040 (…)/HLA-E 01:03 monomer complex (human). The test is described as above.
Test [14] has as its target V-0042 (…)/HLA-E 01:03 monomer complex (human). The description is as above.
Test [15] has as its target V-0041 (…)/HLA-E 01:03 monomer complex (human). Described as above.
In test [16] the target is V-0044 (…)/HLA-E 01:03 monomer complex (human). The test is described as above.
The target in test [17] is V-0046 (…)/HLA-E 01:03 monomer complex (human). Described as above.
Test [18] addresses V-0021 (…)/HLA-E 01:03 monomer complex (human). The description is as above.
Test [19] concerns the target V-0038 (…, Hsp60)/HLA-E 01:03 monomer complex (human). Described as above.
Test [20] deals with T3, HLA-E/… (V-0025, HLA-G signal peptide) complex on cells (human, UniProt P13747 22-358; P61769 21-119).
T3 construct: also called K562.E + V-0025; V-0025 peptide pulsed K562 cells expressing HLA-E
As to the kind of experiment: flow cytometry, ABX0011 staining with Fc block, K562.E cells pulsed with 20 ug/mL peptide for 2hr.

Test [21] has as its target T4, P-0550 (…, PODXL2) pulsed on K562 cells expressing HLA-E (human, UniProt P13747 22-358; P61769 21-119). The description is as above.
Test [22] concerns the target T5, V-0034 (…) pulsed on K562 cells expressing HLA-E (human, UniProt P13747 22-358; P61769 21-119). The description is as above.
The target of test [23] is T2, V-0025 (…, HLA-G signal …). In words: label-free ResoSens instrument; ABX0011 captured by anti-IgG-Fc, monomer complex in serial dilutions from 5 µg/ml; monovalent.
Test [24] has as its target T1, HLA-G on cell lines that express HLA-G …. In words: flow cytometry, JEG3 stimulated with IFNγ (FIG. 25A of the legend).
The target of test [25] is V-0035 (…) pulsed on K562 cells expressing HLA-E (human, UniProt P13747 22-358; P61769 21-119). As to the kind of experiment: flow cytometry, peptide-pulsed K562.E cells, antibody molecules per cell.
Test [26] addresses V-0038 (…, Hsp60) pulsed on K562 cells expressing HLA-E (human, UniProt P13747 22-358; P61769 21-119). The description is as above.
Test [27] deals with V-0040 (…) pulsed on K562 cells expressing HLA-E (human, UniProt P13747 22-358; P61769 21-119). The test is described as above.
The target in test [28] is V-0046 (…) pulsed on K562 cells expressing HLA-E (human, UniProt P13747 22-358; P61769 21-119). The test is described as above.
Test [29] has as its target V-0037 (…) pulsed on K562 cells expressing HLA-E (human, UniProt P13747 22-358; P61769 21-119). The description is as above.
Test [30] has as its target V-0021 (…) pulsed on K562 cells expressing HLA-E (human, UniProt P13747 22-358; P61769 21-119). The description is as above.
The target of test [31] is V-0045 (…) pulsed on K562 cells expressing HLA-E (human, UniProt P13747 22-358; P61769 21-119). The description is as above.
In test [32] the target is V-0043 (…) pulsed on K562 cells expressing HLA-E (human, UniProt P13747 22-358; P61769 21-119). Described as above.
Test [33] concerns the target T4, P-0550 (…, PODXL2) pulsed on K562 cells …. The test is described as above.
The target in test [34] is V-0044 (…) pulsed on K562 cells expressing HLA-E (human, UniProt P13747 22-358; P61769 21-119). Described as above.
Test [35] deals with T5, V-0034 (…) pulsed on K562 cells …. The test is described as above.
Test [36] concerns the target V-0042 (…) pulsed on K562 cells expressing HLA-E (human, UniProt P13747 22-358; P61769 21-119). The description is as above.
Test [37] has as its target V-0041 (…) pulsed on K562 cells expressing HLA-E (human, UniProt P13747 22-358; P61769 21-119). The description is as above.

Like-named read-outs stand apart in the source and are kept apart here.

HLA-E on cells that do not present the HLA-G signal peptide (unpulsed K562.E cells; HLA-E positive, HLA-G negative cells; Tap-1 knock-out cells) (human), sequence (P13747 22-358): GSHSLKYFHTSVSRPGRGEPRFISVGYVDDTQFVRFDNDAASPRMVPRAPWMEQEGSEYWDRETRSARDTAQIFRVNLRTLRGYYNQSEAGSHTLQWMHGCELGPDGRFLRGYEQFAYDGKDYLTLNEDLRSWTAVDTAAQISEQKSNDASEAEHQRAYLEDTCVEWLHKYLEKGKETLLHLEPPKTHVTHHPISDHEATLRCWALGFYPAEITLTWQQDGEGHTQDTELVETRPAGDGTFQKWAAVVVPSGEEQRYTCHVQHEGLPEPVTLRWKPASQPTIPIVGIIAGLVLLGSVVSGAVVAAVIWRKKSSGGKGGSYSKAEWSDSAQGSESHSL

Consider mIgG1 (antibody), for which the % of cells in Q3 (HLA-E channel +, Fab-scFv-Fc -) in [1] is 0.39; in test [2], 0.37.
Usually EC50 (read off the curve) stands for the concentration giving half of the maximal effect. Low values mean greater potency, high ones weaker potency. The molecule anti-HLA-E antibody clone 3D12 registered an EC50 (read off the curve) in test [3] of 7 ng/mL.

B1: ABX0011 (antibody, V domains shown)
VH: EVQLLESGGGLVQPGGSLRLSCAASGFTFSSYAMSWVRQAPGKGLEWVSTIAYGGGATAYADSVKGRFTISRDNSKNTLYLQMNSLRAEDTAVYYCAKGLSNFDYWGQGTLVTVSS
VL: DIQMTQSPSSLSASVGDRVTITCRASQSISSYLNWYQQKPGKAPKLLIYAASSLQSGVPSRFSGSGSGTDFTLTISSLQPEDFATYYCQQAAAYPSLFGQGTKVEIK
notes: also called ABX-11; R2-C02 as hIgG1
As usually defined, the Kd is the free concentration of one partner at which half of the binding sites on the other are occupied at equilibrium, for simple one-to-one binding. Regarding B1, the binding result in [4] is given as “no binding (tested: 1 µg/mL)”; in [5] it was “no binding (tested: 1 µg/ml)”; in test [7], “no binding (tested: 1 ug/ml)”; in [8] it was “no binding (tested: 1 ug/ml)”; in test [9], “no binding (tested: 1 ug/ml)”; in [10], “no binding (tested: 1 ug/ml)”. In addition, the binding result in test [11], in test [12], in test [13], in test [14], in [15] and in test [16] was “no binding (tested: 1 ug/ml)” throughout. Further, the binding result in [17] is given as “no binding (tested: 1 ug/ml)”; in [18], “no binding (tested: 1 ug/ml)”; in test [19], “no binding (tested: 1 ug/ml)”; in test [21], “no binding (tested: 10 µg/mL)”; in test [22] it was “no binding (tested: 10 µg/mL)”. Besides, the “EC50 (read off the curve)” value in test [6] is ~1 ng/mL; in test [20], ~0.05 µg/mL. In test [23], the Kd is 7.9 nM.

B2: ABX0012 (ABX0011 with mouse IgG1) (antibody, V domains shown)
VH: B1 VH
VL: DIQMTQSPSSLSASVGDRVTITCRASQSISSYLNWYQQKPGKAPKLLIYAASSLQSGVPSRFSGSGSGTDFTLTISSLQPEDFATYYCQQAAAYPSLFGQGTKVEIKR
notes: also called ABX012; AB0012
As to B2, the binding result in test [24], in test [25], in test [26], in test [27], in test [28] and in test [29] was “no binding” each time. Further, the binding result in [30], in test [31], in test [32], in test [33], in test [34] and in [35] was “no binding” in each case. Also, the binding result in test [36] and in test [37] was “no binding” each time.

(Values after patent publication US20230303701A1 (ABEXXA BIOLOGICS, published 2023).)
